How the values were obtained:
Assay in all cases: two-hybrid
[1] = molecular target: SARS-CoV accessory protein ORF14 (yeast two-hybrid fusions) (SARS-CoV Tor2 isolate)
[2] = molecular target: SARS-CoV accessory protein 8a (yeast two-hybrid fusions) (SARS-CoV Tor2 isolate)
[3] = molecular target: SARS-CoV accessory protein 9b (yeast two-hybrid fusions) (SARS-CoV Tor2 isolate)

| Substance | α-Galactosidase [1] | β-Galactosidase [1] | α-Galactosidase [2] | β-Galactosidase [2] | α-Galactosidase [3] | β-Galactosidase [3] |
| --- | --- | --- | --- | --- | --- | --- |
| SARS-CoV accessory protein ORF14 (yeast two-hybrid fusions) (natural protein) | 1.84 | 6.03 |  |  |  |  |
| SARS-CoV accessory protein 9b (yeast two-hybrid fusions) (natural protein) |  |  | 1.17 | 6.91 | 2.52 | 8.8 |
